Data reported in publication doi:10.1101/2020.05.12.090472 (bioRxiv, 2020).
No end group written: not given here. *: point of attachment. Biotin = O=C1N[C@H]2[C@H](CS[C@H]2CCCCC(=O)*)N1

Target: Recombinant Cdk5/p25 complex (human Cdk5 and p25 with N-terminal GST-tags) (human, UniProt Q00535 1-292; Q15078 99-307)
Assay: pull-down

## Biotin-ARAFGIPVRCYS [biotin-conjugated Cdk5i peptide]
  binding result: binds
